Test results published in US20190233493A1 (Sanofi, published 2019).
*1 amine or outer side, *2 acyl side, *3 side chain or, on linkers, in order; H or OH if unused. Primed or numbered codes have the meaning given here. Side-chain parts run from the residue outwards. [ ]: non-standard residue; d: D form. The star is where a group is joined. PEG12 = NCCOCCOCCOCCOCCOCCOCCOCCOCCOCCOCCOCCOCCC(=O)O; γGlu = O=C(O)[C@H](CCC(=O)[*:2])N[*:1]; 1Nal = N[C@@H](Cc1cccc2ccccc12)C(=O)O; Stearoyl = CCCCCCCCCCCCCCCCCC(=O)*; Palmitoyl = CCCCCCCCCCCCCCCC(=O)*; αMeK = C[C@](N)(CCCCN)C(=O)O; Nle = CCCC[C@H](N)C(=O)O; PEG2′ = PEG2 spacer unit; Aib = CC(C)(N)C(=O)O

Target: T1, RXFP1 receptor (UniProt Q9HBX9 1-757, limits assumed)
T1 sequence (looked up): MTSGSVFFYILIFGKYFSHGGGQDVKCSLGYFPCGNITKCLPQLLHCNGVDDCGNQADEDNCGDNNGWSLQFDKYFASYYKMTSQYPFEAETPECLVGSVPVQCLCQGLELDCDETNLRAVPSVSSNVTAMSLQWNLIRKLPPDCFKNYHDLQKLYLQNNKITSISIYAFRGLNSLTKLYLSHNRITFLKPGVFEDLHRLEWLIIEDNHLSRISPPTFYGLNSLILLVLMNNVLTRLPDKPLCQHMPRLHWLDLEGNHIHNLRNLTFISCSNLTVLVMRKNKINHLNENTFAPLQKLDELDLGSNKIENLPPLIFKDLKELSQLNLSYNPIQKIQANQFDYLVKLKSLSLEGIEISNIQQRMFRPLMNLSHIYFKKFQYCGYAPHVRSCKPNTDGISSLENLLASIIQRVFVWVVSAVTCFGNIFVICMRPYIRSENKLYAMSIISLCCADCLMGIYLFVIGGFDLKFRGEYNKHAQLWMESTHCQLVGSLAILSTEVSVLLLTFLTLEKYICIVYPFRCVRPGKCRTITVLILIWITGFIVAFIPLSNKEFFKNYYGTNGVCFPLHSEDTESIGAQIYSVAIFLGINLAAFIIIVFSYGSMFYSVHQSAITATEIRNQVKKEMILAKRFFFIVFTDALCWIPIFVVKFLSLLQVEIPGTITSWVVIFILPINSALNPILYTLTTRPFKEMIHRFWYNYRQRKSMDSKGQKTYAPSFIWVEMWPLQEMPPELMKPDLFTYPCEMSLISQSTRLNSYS
Test: cell-based or functional assay

Row | Binder | EC50 (nM), OVCAR 5 cells (cAMP) | EMax, OVCAR 5 cells (cAMP)
1 | Ac-LEGREKVRAK(Ac)I[Aib][Aib]EG[Nle]STWX[Aib]RKK(Ac)[PEG12]K([γGlu-γGlu-γGlu-Stearoyl])-NH2 (not fully specified (some residues); printed as Ac-L-E-G-R-E-K-V-R-A-K(Ac)-I-Aib-Aib-E-G-Nle-S-T-W-Mse-Aib-R-K-K(Ac)-PEG12-K(gE-gE-gE-Stea)-NH2) [peptide of SEQ ID NO: 41] | 0.09 nM | 87%
2 | Ac-LEGREKVR[Aib]K(Ac)I[Aib][Aib]EG[Nle]ST[1Nal]S[Aib]RKK(Ac)[PEG12]K([γGlu-γGlu-γGlu-Stearoyl])-NH2 (SMILES CCCCCCCCCCCCCCCCCC(=O)N[C@@H](CCC(=O)N[C@@H](CCC(=O)N[C@@H](CCC(=O)NCCCC[C@H](NC(=O)CCOCCOCCOCCOCCOCCOCCOCCOCCOCCOCCOCCOCCNC(=O)[C@H](CCCCNC(C)=O)NC(=O)[C@H](CCCCN)NC(=O)[C@H](CCCNC(=N)N)NC(=O)C(C)(C)NC(=O)[C@H](CO)NC(=O)[C@H](Cc1cccc2ccccc12)NC(=O)[C@@H](NC(=O)[C@H](CO)NC(=O)[C@H](CCCC)NC(=O)CNC(=O)[C@H](CCC(=O)O)NC(=O)C(C)(C)NC(=O)C(C)(C)NC(=O)[C@@H](NC(=O)[C@H](CCCCNC(C)=O)NC(=O)C(C)(C)NC(=O)[C@H](CCCNC(=N)N)NC(=O)[C@@H](NC(=O)[C@H](CCCCN)NC(=O)[C@H](CCC(=O)O)NC(=O)[C@H](CCCNC(=N)N)NC(=O)CNC(=O)[C@H](CCC(=O)O)NC(=O)[C@H](CC(C)C)NC(C)=O)C(C)C)[C@@H](C)CC)[C@@H](C)O)C(N)=O)C(=O)O)C(=O)O)C(=O)O) [peptide of SEQ ID NO: 37] | 2.49 nM | 83%
3 | Ac-LEGREKVRAK(Ac)I[Aib][Aib]EG[Nle]STWS[αMeK]RKK(Ac)[PEG12]K([γGlu-γGlu-γGlu-γGlu-Stearoyl])-NH2 (SMILES CCCCCCCCCCCCCCCCCC(=O)N[C@@H](CCC(=O)N[C@@H](CCC(=O)N[C@@H](CCC(=O)N[C@@H](CCC(=O)NCCCC[C@H](NC(=O)CCOCCOCCOCCOCCOCCOCCOCCOCCOCCOCCOCCOCCNC(=O)[C@H](CCCCNC(C)=O)NC(=O)[C@H](CCCCN)NC(=O)[C@H](CCCNC(=N)N)NC(=O)[C@](C)(CCCCN)NC(=O)[C@H](CO)NC(=O)[C@H](Cc1c[nH]c2ccccc12)NC(=O)[C@@H](NC(=O)[C@H](CO)NC(=O)[C@H](CCCC)NC(=O)CNC(=O)[C@H](CCC(=O)O)NC(=O)C(C)(C)NC(=O)C(C)(C)NC(=O)[C@@H](NC(=O)[C@H](CCCCNC(C)=O)NC(=O)[C@H](C)NC(=O)[C@H](CCCNC(=N)N)NC(=O)[C@@H](NC(=O)[C@H](CCCCN)NC(=O)[C@H](CCC(=O)O)NC(=O)[C@H](CCCNC(=N)N)NC(=O)CNC(=O)[C@H](CCC(=O)O)NC(=O)[C@H](CC(C)C)NC(C)=O)C(C)C)[C@@H](C)CC)[C@@H](C)O)C(N)=O)C(=O)O)C(=O)O)C(=O)O)C(=O)O) [peptide of SEQ ID NO: 42] | 0.01 nM | 91%
4 | Ac-LEGREKVRAK(Ac)I[Aib][Aib]EG[Nle]ST[1Nal]S[Aib]RK[PEG12]K([γGlu-γGlu-γGlu-Stearoyl])-NH2 (SMILES CCCCCCCCCCCCCCCCCC(=O)N[C@@H](CCC(=O)N[C@@H](CCC(=O)N[C@@H](CCC(=O)NCCCC[C@H](NC(=O)CCOCCOCCOCCOCCOCCOCCOCCOCCOCCOCCOCCOCCNC(=O)[C@H](CCCCN)NC(=O)[C@H](CCCNC(=N)N)NC(=O)C(C)(C)NC(=O)[C@H](CO)NC(=O)[C@H](Cc1cccc2ccccc12)NC(=O)[C@@H](NC(=O)[C@H](CO)NC(=O)[C@H](CCCC)NC(=O)CNC(=O)[C@H](CCC(=O)O)NC(=O)C(C)(C)NC(=O)C(C)(C)NC(=O)[C@@H](NC(=O)[C@H](CCCCNC(C)=O)NC(=O)[C@H](C)NC(=O)[C@H](CCCNC(=N)N)NC(=O)[C@@H](NC(=O)[C@H](CCCCN)NC(=O)[C@H](CCC(=O)O)NC(=O)[C@H](CCCNC(=N)N)NC(=O)CNC(=O)[C@H](CCC(=O)O)NC(=O)[C@H](CC(C)C)NC(C)=O)C(C)C)[C@@H](C)CC)[C@@H](C)O)C(N)=O)C(=O)O)C(=O)O)C(=O)O) [peptide of SEQ ID NO: 45] | 0.81 nM | 79%
5 | Ac-LEGREKVRAK(Ac)I[Aib][Aib]EG[Nle]STWS[αMeK]RKK(Ac)[PEG12]K([γGlu-γGlu-γGlu-γGlu-Palmitoyl])-NH2 [peptide of SEQ ID NO: 43] | 0.14 nM | 106%
6 | Ac-LEGREKVRAK(Ac)I[Aib][Aib]EG[Nle]STWXXRKK(Ac)[PEG12]K([γGlu-γGlu-γGlu-γGlu-Stearoyl])-NH2 (not fully specified (some residues); printed as Ac-L-E-G-R-E-K-V-R-A-K(Ac)-I-Aib-Aib-E-G-Nle-S-T-W-Mse-Mly-R-K-K(Ac)-PEG12-K(gE-gE-gE-gE-Stea)-NH2) [peptide of SEQ ID NO: 40] | 0.02 nM | 90%
7 | Ac-LEGREKVRAK(Ac)I[Aib][Aib]EGQSTYS[Aib]RKK(Ac)K([PEG2′-PEG2′-PEG2′-γGlu-γGlu-γGlu-Palmitoyl])-NH2 [peptide of SEQ ID NO: 44] | 16.1 nM | 75%
8 | Ac-LEGREKVR[Aib]K(Ac)I[Aib][Aib]EG[Nle]STWS[Aib]RKK(Ac)[PEG12]K([γGlu-γGlu-γGlu-Stearoyl])-NH2 (SMILES CCCCCCCCCCCCCCCCCC(=O)N[C@@H](CCC(=O)N[C@@H](CCC(=O)N[C@@H](CCC(=O)NCCCC[C@H](NC(=O)CCOCCOCCOCCOCCOCCOCCOCCOCCOCCOCCOCCOCCNC(=O)[C@H](CCCCNC(C)=O)NC(=O)[C@H](CCCCN)NC(=O)[C@H](CCCNC(=N)N)NC(=O)C(C)(C)NC(=O)[C@H](CO)NC(=O)[C@H](Cc1c[nH]c2ccccc12)NC(=O)[C@@H](NC(=O)[C@H](CO)NC(=O)[C@H](CCCC)NC(=O)CNC(=O)[C@H](CCC(=O)O)NC(=O)C(C)(C)NC(=O)C(C)(C)NC(=O)[C@@H](NC(=O)[C@H](CCCCNC(C)=O)NC(=O)C(C)(C)NC(=O)[C@H](CCCNC(=N)N)NC(=O)[C@@H](NC(=O)[C@H](CCCCN)NC(=O)[C@H](CCC(=O)O)NC(=O)[C@H](CCCNC(=N)N)NC(=O)CNC(=O)[C@H](CCC(=O)O)NC(=O)[C@H](CC(C)C)NC(C)=O)C(C)C)[C@@H](C)CC)[C@@H](C)O)C(N)=O)C(=O)O)C(=O)O)C(=O)O) [peptide of SEQ ID NO: 36] | 0.89 nM | 84%
9 | Ac-LEGREKVRAK(Ac)I[Aib][Aib]EG[Nle]STWS[Aib]RK[PEG12]K([γGlu-γGlu-γGlu-Palmitoyl])-NH2 (SMILES CCCCCCCCCCCCCCCC(=O)N[C@@H](CCC(=O)N[C@@H](CCC(=O)N[C@@H](CCC(=O)NCCCC[C@H](NC(=O)CCOCCOCCOCCOCCOCCOCCOCCOCCOCCOCCOCCOCCNC(=O)[C@H](CCCCN)NC(=O)[C@H](CCCNC(=N)N)NC(=O)C(C)(C)NC(=O)[C@H](CO)NC(=O)[C@H](Cc1c[nH]c2ccccc12)NC(=O)[C@@H](NC(=O)[C@H](CO)NC(=O)[C@H](CCCC)NC(=O)CNC(=O)[C@H](CCC(=O)O)NC(=O)C(C)(C)NC(=O)C(C)(C)NC(=O)[C@@H](NC(=O)[C@H](CCCCNC(C)=O)NC(=O)[C@H](C)NC(=O)[C@H](CCCNC(=N)N)NC(=O)[C@@H](NC(=O)[C@H](CCCCN)NC(=O)[C@H](CCC(=O)O)NC(=O)[C@H](CCCNC(=N)N)NC(=O)CNC(=O)[C@H](CCC(=O)O)NC(=O)[C@H](CC(C)C)NC(C)=O)C(C)C)[C@@H](C)CC)[C@@H](C)O)C(N)=O)C(=O)O)C(=O)O)C(=O)O) [peptide of SEQ ID NO: 38] | 0.21 nM | 89%
10 | Ac-LEGREKVRAK(Ac)I[Aib][Aib]EG[Nle]STWXKRKK(Ac)[PEG12]K([γGlu-γGlu-γGlu-γGlu-Stearoyl])-NH2 (not fully specified (some residues); printed as Ac-L-E-G-R-E-K-V-R-A-K(Ac)-I-Aib-Aib-E-G-Nle-S-T-W-Mse-K-R-K-K(Ac)-PEG12-K(gE-gE-gE-gE-Stea)-NH2) [peptide of SEQ ID NO: 39] | 0.03 nM | 91%
